# Reference: patent US20210040184A1
# How the values were obtained:
# [1] = molecular target: HIV-1 AC10.0.29 envelope (Env) on Env.IMC.LucR virus (HIV-1 clade B); test: cell-based or functional assay
# [2] = molecular target: HIV-1 CAP45.2.00.G3 envelope (Env) on Env.IMC.LucR virus (HIV-1 clade C); test: cell-based or functional assay
# [3] = molecular target: HIV-1 CNE20 envelope (Env) on Env.IMC.LucR virus (HIV-1 clade BC); test: cell-based or functional assay
# [4] = molecular target: HIV-1 DU172.17 envelope (Env) on Env.IMC.LucR virus (HIV-1 clade C); test: cell-based or functional assay
# [5] = molecular target: HIV-1 DU422.1 envelope (Env) on Env.IMC.LucR virus (HIV-1 clade C); test: cell-based or functional assay
# [6] = molecular target: HIV-1 REJO4541.67 envelope (Env) on Env.IMC.LucR virus (HIV-1 clade B); test: cell-based or functional assay
# [7] = molecular target: HIV-1 X1632_S2_B10 envelope (Env) on Env.IMC.LucR virus (HIV-1 clade G); test: cell-based or functional assay
# [8] = molecular target: Clade B BaL gp120 protein (HIV-1 Clade B, BaL); test: BLI (Octet), IgG on anti-hIgG Fc sensor, gp120 analyte, 1:1 fit
# [9] = molecular target: Clade C DU172.17 gp120 protein (HIV-1 Clade C, DU172.17); test: as above
substance,measurement,setting,value
3BNC117 (antibody),"IC50 of virus neutralization (TZM-BL, luciferase)",[1],11 µg/mL
same,"IC50 of virus neutralization (TZM-BL, luciferase)",[2],2.7 µg/mL
same,"IC50 of virus neutralization (TZM-BL, luciferase)",[3],> 50 µg/mL
same,"IC50 of virus neutralization (TZM-BL, luciferase)",[4],1.25 µg/mL
same,"IC50 of virus neutralization (TZM-BL, luciferase)",[5],> 50 µg/mL
same,"IC50 of virus neutralization (TZM-BL, luciferase)",[6],0.07 µg/mL
same,"IC50 of virus neutralization (TZM-BL, luciferase)",[7],31.2 µg/mL
same,Kd,[8],3.29 nM
same,fold (KD vs average of 4 runs of L1A2),[8],6.07 fold
same,koff,[8],0.000291 s⁻¹
same,kon,[8],88500 M⁻¹ s⁻¹
same,Kd,[9],95.8 nM
same,fold (KD vs average of 4 runs of L1A2),[9],3.77 fold
same,koff,[9],0.00457 s⁻¹
same,kon,[9],47700 M⁻¹ s⁻¹
